From the supplement of paper PMC5998384

Legend:
[1] = system: HeLa Kyoto; assay: thermal stability score vs G1/S (z-score of summed log2 fold changes over temperatures); higher = more thermally stable than in G1/S
[2] = system: HeLa Kyoto; assay: solubility in G1/S (NP-40 vs SDS abundance) (log2 ratio); higher = more soluble; conditions: cell cycle stage: G1/S
[3] = system: HeLa Kyoto; assay: melting temperature (median over replicates), in situ; higher = more thermally stable
[4] = system: HeLa Kyoto; assay: solubility change mitosis vs G1/S (difference of NP-40 vs SDS log2 ratios) (log2 ratio difference); higher = more soluble in mitosis
[5] = cell cycle stage: early G1 (4.5 h after nocodazole release)
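Throughout, for melting temperature (median over replicates), in situ: HeLa Kyoto cells synchronized by double thymidine or nocodazole block, proteins quantified by TMT10plex mass spectrometry, three independent biological replicates.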
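Throughout, for solubility change mitosis vs G1/S (difference of NP-40 vs SDS log2 ratios): synchronized HeLa Kyoto cells (double thymidine block for G1/S, nocodazole release for mitosis), protein amounts in NP-40 versus SDS lysates quantified by mass spectrometry, three biological replicates.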
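Throughout, for solubility in G1/S (NP-40 vs SDS abundance): HeLa Kyoto cells arrested at G1/S by double thymidine block, proteins quantified by TMT10plex mass spectrometry in mild NP-40 versus SDS extracts, three biological replicates.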
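Throughout, for thermal stability score vs G1/S (z-score of summed log2 fold changes over temperatures): synchronized HeLa Kyoto cells, proteins quantified by TMT10plex mass spectrometry, three biological replicates, mitosis taken 0.5 h after nocodazole release, G1/S directly after double thymidine block.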

Sequence	thermal stability score [1, 5]	thermal stability score ([1]; cell cycle stage: mitosis)	solubility in G1/S (log2) [2]	melting temperature ([3]; cell cycle stage: mitosis)	solubility change mitosis (log2) [4]	melting temperature ([3]; cell cycle stage: G1/S)
MNIMNTEQSQNSIVSRIKVFEGQTNIETSGLPKKPEITPRSLPPKPTVSSGKPSVAPKPAANRASGEWDSGTENRLKVTSKEGLTPYPPLQEAGSIPVTKPELPKKPNPGLIRSVNPEIPGRGPLAESSDSGKKVPTPAPRPLLLKKSVSSENPTYPSAPLKPVTVPPRLAGASQAKAYKSLGEGPPANPPVPVLQSKPLVDIDLISFDDDVLPTPSGNLAEESVGSEMVLDPFQLPAKTEPIKERAVQPAPTRKPTVIRIPAKPGKCLHEDPQSPPPLPAEKPIGNTFSTVSGKLSNVERTRNLESNHPGQTGGFVRVPPRLPPRPVNGKTIPTQQPPTKVPPERPPPPKLSATRRSNKKLPFNRSSSDMDLQKKQSNLATGLSKAKSQVFKNQDPVLPPRPKPGHPLYSKYMLSVPHGIANEDIVSQNPGELSCKRGDVLVMLKQTENNYLECQKGEDTGRVHLSQMKIITPLDEHLRSRPNDPSHAQKPVDSGAPHAVVLHDFPAEQVDDLNLTSGEIVYLLEKIDTDWYRGNCRNQIGIFPANYVKVIIDIPEGGNGKRECVSSHCVKGSRCVARFEYIGEQKDELSFSEGEIIILKEYVNEEWARGEVRGRTGIFPLNFVEPVEDYPTSGANVLSTKVPLKTKKEDSGSNSQVNSLPAEWCEALHSFTAETSDDLSFKRGDRIQILERLDSDWCRGRLQDREGIFPAVFVRPCPAEAKSMLAIVPKGRKAKALYDFRGENEDELSFKAGDIITELESVDDDWMSGELMGKSGIFPKNYIQFLQIS [SH3D19]	0.0615	-0.175	0.173	49 °C	-0.127	–
MNNQKQQKPTLSGQRFKTRKRDEKERFDPTQFQDCIIQGLTETGTDLEAVAKFLDASGAKLDYRRYAETLFDILVAGGMLAPGGTLADDMMRTDVCVFAAQEDLETMQAFAQVFNKLIRRYKYLEKGFEDEVKKLLLFLKGFSESERNKLAMLTGVLLANGTLNASILNSLYNENLVKEGVSAAFAVKLFKSWINEKDINAVAASLRKVSMDNRLMELFPANKQSVEHFTKYFTEAGLKELSEYVRNQQTIGARKELQKELQEQMSRGDPFKDIILYVKEEMKKNNIPEPVVIGIVWSSVMSTVEWNKKEELVAEQAIKHLKQYSPLLAAFTTQGQSELTLLLKIQEYCYDNIHFMKAFQKIVVLFYKAEVLSEEPILKWYKDAHVAKGKSVFLEQMKKFVEWLKNAEEESESEAEEGD [BZW1]	2.93	6.17	0.625	48.8 °C	-0.105	49.3 °C
MNNSGADEIGKLFVGGLDWSTTQETLRSYFSQYGEVVDCVIMKDKTTNQSRGFGFVKFKDPNCVGTVLASRPHTLDGRNIDPKPCTPRGMQPERTRPKEGWQKGPRSDNSKSNKIFVGGIPHNCGETELREYFKKFGVVTEVVMIYDAEKQRPRGFGFITFEDEQSVDQAVNMHFHDIMGKKVEVKRAEPRDSKSQAPGQPGASQWGSRVVPNAANGWAGQPPPTWQQGYGPQGMWVPAGQAIGGYGPPPAGRGAPPPPPPFTSYIVSTPPGGFPPPQGFPQGYGAPPQFSFGYGPPPPPPDQFAPPGVPPPPATPGAAPLAFPPPPSQAAPDMSKPPTAQPDFPYGQYAGYGQDLSGFGQGFSDPSQQPPSYGGPSVPGSGGPPAGGSGFGRGQNHNVQGFHPYRR [DAZAP1]	-1.35	-1.24	0.412	53.7 °C	-0.0921	53.6 °C
MNNSLENTISFEEYIRVKARSVPQHRMKEFLDSLASKGPEALQEFQQTATTTMVYQQGGNCIYTDSTEVAGSLLELACPVTTSVQPQTQQEQQIQVQQPQQVQVQVQVQQSPQQVSAQLSPQLTVHQPTEQPIQVQVQIQGQAPQSAAPSIQTPSLQSPSPSQLQAAQIQVQHVQAAQQIQAAEIPEEHIPHQQIQAQLVAGQSLAGGQQIQIQTVGALSPPPSQQGSPREGERRVGTASVLQPVKKRKVDMPITVSYAISGQPVATVLAIPQGQQQSYVSLRPDLLTVDSAHLYSATGTITSPTGETWTIPVYSAQPRGDPQQQSITHIAIPQEAYNAVHVSGSPTALAAVKLEDDKEKMVGTTSVVKNSHEEVVQTLANSLFPAQFMNGNIHIPVAVQAVAGTYQNTAQTVHIWDPQQQPQQQTPQEQTPPPQQQQQQLQVTCSAQTVQVAEVEPQSQPQPSPELLLPNSLKPEEGLEVWKNWAQTKNAELEKDAQNRLAPIGRRQLLRFQEDLISSAVAELNYGLCLMTREARNGEGEPYDPDVLYYIFLCIQKYLFENGRVDDIFSDLYYVRFTEWLHEVLKDVQPRVTPLGYVLPSHVTEEMLWECKQLGAHSPSTLLTTLMFFNTKYFLLKTVDQHMKLAFSKVLRQTKKNPSNPKDKSTSIRYLKALGIHQTGQKVTDDMYAEQTENPENPLRCPIKLYDFYLFKCPQSVKGRNDTFYLTPEPVVAPNSPIWYSVQPISREQMGQMLTRILVIREIQEAIAVANASTMH [QRICH1]	3.16	5.23	0.184	49.3 °C	-0.197	47 °C
MNPEKDFAPLTPNIVRALNDKLYEKRKVAALEIEKLVREFVAQNNTVQIKHVIQTLSQEFALSQHPHSRKGGLIGLAACSIALGKDSGLYLKELIEPVLTCFNDADSRLRYYACEALYNIVKVARGAVLPHFNVLFDGLSKLAADPDPNVKSGSELLDRLLKDIVTESNKFDLVSFIPLLRERIYSNNQYARQFIISWILVLESVPDINLLDYLPEILDGLFQILGDNGKEIRKMCEVVLGEFLKEIKKNPSSVKFAEMANILVIHCQTTDDLIQLTAMCWMREFIQLAGRVMLPYSSGILTAVLPCLAYDDRKKSIKEVANVCNQSLMKLVTPEDDELDELRPGQRQAEPTPDDALPKQEGTASGGPDGSCDSSFSSGISVFTAASTERAPVTLHLDGIVQVLNCHLSDTAIGMMTRIAVLKWLYHLYIKTPRKMFRHTDSLFPILLQTLSDESDEVILKDLEVLAEIASSPAGQTDDPGPLDGPDLQASHSELQVPTPGRAGLLNTSGTKGLECSPSTPTMNSYFYKFMINLLKRFSSERKLLEVRGPFIIRQLCLLLNAENIFHSMADILLREEDLKFASTMVHALNTILLTSTELFQLRNQLKDLKTLESQNLFCCLYRSWCHNPVTTVSLCFLTQNYRHAYDLIQKFGDLEVTVDFLAEVDKLVQLIECPIFTYLRLQLLDVKNNPYLIKALYGLLMLLPQSSAFQLLSHRLQCVPNPELLQTEDSLKAAPKSQKADSPSIDYAELLQHFEKVQNKHLEVRHQRSGRGDHLDRRVVL [VAC14]	-1.83	-1.68	0.0329	53.9 °C	-0.133	53.3 °C
MNPNCARCGKIVYPTEKVNCLDKFWHKACFHCETCKMTLNMKNYKGYEKKPYCNAHYPKQSFTMVADTPENLRLKQQSELQSQVRYKEEFEKNKGKGFSVVADTPELQRIKKTQDQISNIKYHEEFEKSRMGPSGGEGMEPERRDSQDGSSYRRPLEQQQPHHIPTSAPVYQQPQQQPVAQSYGGYKEPAAPVSIQRSAPGGGGKRYRAVYDYSAADEDEVSFQDGDTIVNVQQIDDGWMYGTVERTGDTGMLPANYVEAI [LASP1]	-2.02	-2.68	0.0591	60.5 °C	0.0867	58.7 °C
MNPSMKQKQEEIKENIKNSSVPRRTLKMIQPSASGSLVGRENELSAGLSKRKHRNDHLTSTTSSPGVIVPESSENKNLGGVTQESFDLMIKENPSSQYWKEVAEKRRKALYEALKENEKLHKEIEQKDNEIARLKKENKELAEVAEHVQYMAELIERLNGEPLDNFESLDNQEFDSEEETVEDSLVEDSEIGTCAEGTVSSSTDAKPCI [GMNN]	-7.44	-7.77	0.46	52.7 °C	-0.0263	57.5 °C
MNPTLILAAFCLGIASATLTFDHSLEAQWTKWKAMHNRLYGMNEEGWRRAVWEKNMKMIELHNQEYREGKHSFTMAMNAFGDMTSEEFRQVMNGFQNRKPRKGKVFQEPLFYEAPRSVDWREKGYVTPVKNQGQCGSCWAFSATGALEGQMFRKTGRLISLSEQNLVDCSGPQGNEGCNGGLMDYAFQYVQDNGGLDSEESYPYEATEESCKYNPKYSVANDTGFVDIPKQEKALMKAVATVGPISVAIDAGHESFLFYKEGIYFEPDCSSEDMDHGVLVVGYGFESTESDNNKYWLVKNSWGEEWGMGGYVKMAKDRRNHCGIASAASYPTV [CTSL]	1.47	1.22	-0.176	55 °C	0.0996	53.9 °C
MNRFRVSKFRHTEARPPRRESWISDIRAGTAPSCRNHIKSSCSLIAFNSDRPGVLGIVPLQGQGEDKRRVAHLGCHSDLVTDLDFSPFDDFLLATGSADRTVKLWRLPGPGQALPSAPGVVLGPEDLPVEVLQFHPTSDGILVSAAGTTVKVWDAAKQQPLTELAAHGDLVQSAVWSRDGALVGTACKDKQLRIFDPRTKPRASQSTQAHENSRDSRLAWMGTWEHLVSTGFNQMREREVKLWDTRFFSSALASLTLDTSLGCLVPLLDPDSGLLVLAGKGERQLYCYEVVPQQPALSPVTQCVLESVLRGAALVPRQALAVMSCEVLRVLQLSDTAIVPIGYHVPRKAVEFHEDLFPDTAGCVPATDPHSWWAGDNQQVQKVSLNPACRPHPSFTSCLVPPAEPLPDTAQPAVMETPVGDADASEGFSSPPSSLTSPSTPSSLGPSLSSTSGIGTSPSLRSLQSLLGPSSKFRHAQGTVLHRDSHITNLKGLNLTTPGESDGFCANKLRVAVPLLSSGGQVAVLELRKPGRLPDTALPTLQNGAAVTDLAWDPFDPHRLAVAGEDARIRLWRVPAEGLEEVLTTPETVLTGHTEKICSLRFHPLAANVLASSSYDLTVRIWDLQAGADRLKLQGHQDQIFSLAWSPDGQQLATVCKDGRVRVYRPRSGPEPLQEGPGPKGGRGARIVWVCDGRCLLVSGFDSQSERQLLLYEAEALAGGPLAVLGLDVAPSTLLPSYDPDTGLVLLTGKGDTRVFLYELLPESPFFLECNSFTSPDPHKGLVLLPKTECDVREVELMRCLRLRQSSLEPVAFRLPRVRKEFFQDDVFPDTAVIWEPVLSAEAWLQGANGQPWLLSLQPPDMSPVSQAPREAPARRAPSSAQYLEEKSDQQKKEELLNAMVAKLGNREDPLPQDSFEGVDEDEWD [CORO7]	0.406	0.778	-0.00965	51.9 °C	0.159	51 °C
MNSPGGRGKKKGSGGASNPVPPRPPPPCLAPAPPAAGPAPPPESPHKRNLYYFSYPLFVGFALLRLVAFHLGLLFVWLCQRFSRALMAAKRSSGAAPAPASASAPAPVPGGEAERVRVFHKQAFEYISIALRIDEDEKAGQKEQAVEWYKKGIEELEKGIAVIVTGQGEQCERARRLQAKMMTNLVMAKDRLQLLEKMQPVLPFSKSQTDVYNDSTNLACRNGHLQSESGAVPKRKDPLTHTSNSLPRSKTVMKTGSAGLSGHHRAPSYSGLSMVSGVKQGSGPAPTTHKGTPKTNRTNKPSTPTTATRKKKDLKNFRNVDSNLANLIMNEIVDNGTAVKFDDIAGQDLAKQALQEIVILPSLRPELFTGLRAPARGLLLFGPPGNGKTMLAKAVAAESNATFFNISAASLTSKYVGEGEKLVRALFAVARELQPSIIFIDEVDSLLCERREGEHDASRRLKTEFLIEFDGVQSAGDDRVLVMGATNRPQELDEAVLRRFIKRVYVSLPNEETRLLLLKNLLCKQGSPLTQKELAQLARMTDGYSGSDLTALAKDAALGPIRELKPEQVKNMSASEMRNIRLSDFTESLKKIKRSVSPQTLEAYIRWNKDFGDTTV [SPAST]	0.0551	1.16	0.427	49.3 °C	-0.012	48.8 °C
